According to US20260286413A1, “HYALURONAN SYNTHESIS, SECRETION AND LENGTH CONTROL” (UNIVERSITY OF VIRGINIA, priority 2023, published 2026):

T1: X1HAS1 (Xenopus laevis, UniProt P13563)
T1 construct: dodeca-histidine (His12) (N); made in house; host or cells: Spodoptera frugiperda Sf9 cells (baculovirus)
T1 sequence (P13563 1-588): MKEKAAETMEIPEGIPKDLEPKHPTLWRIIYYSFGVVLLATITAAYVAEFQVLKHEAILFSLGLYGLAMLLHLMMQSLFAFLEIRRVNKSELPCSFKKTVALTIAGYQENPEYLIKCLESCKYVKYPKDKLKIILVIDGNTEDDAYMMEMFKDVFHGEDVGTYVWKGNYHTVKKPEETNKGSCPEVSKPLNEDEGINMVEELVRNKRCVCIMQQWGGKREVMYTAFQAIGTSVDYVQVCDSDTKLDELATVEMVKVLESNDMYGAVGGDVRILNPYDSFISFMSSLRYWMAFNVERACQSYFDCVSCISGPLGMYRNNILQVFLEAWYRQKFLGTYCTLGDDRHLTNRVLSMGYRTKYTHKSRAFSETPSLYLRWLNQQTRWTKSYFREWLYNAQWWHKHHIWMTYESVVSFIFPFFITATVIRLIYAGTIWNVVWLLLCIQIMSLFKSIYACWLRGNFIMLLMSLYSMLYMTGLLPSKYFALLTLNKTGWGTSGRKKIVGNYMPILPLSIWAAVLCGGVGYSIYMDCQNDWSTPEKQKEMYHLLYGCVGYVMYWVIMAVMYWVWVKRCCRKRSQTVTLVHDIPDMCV


Key:
X1HAS1 [1] = target: T1, X1HAS1; experiment: Substrate turnover rate quantification (UDP release, enzyme-coupled assay); assay type: biochemical; details: one substrate titrated at saturating concentration of the other; real-time quantification of released UDP; read-out: Michaelis-Menten constant
Procedure: (§1) UDP release during HA synthesis was quantified using an enzyme-coupled assay as previously described (10, 13). Depletion of NADH was monitored at 340 nm every 60 s for 3 hours at 37° C. in a SpectraMax instrument. The raw data was processed in MS Excel and a linear phase of each reaction was determined. The rate of NADH depletion was converted to pmoles of UDP released using a UDP standardized plot (FIG. S1C) for Michaelis-Menten constant determination using GraphPad Prism. For substrate turnover rate quantification of X1HAS1 mutants, pmoles of released UDP were converted to the number of corresponding substrate turnovers per molecule of X1HAS1, per minute. Data is presented relative to wild type activity. All experiments were performed in four to eight replicates and error bars represent standard deviation from the means.
(§2) HAS transfers the UDP-activated glycosyl unit (the donor sugar) to the non-reducing end of the nascent HA polymer (the acceptor sugar). This reaction generates UDP and elongated HA as reaction products (FIG. 1A). Catalytic activity can be assessed by monitoring the release of UDP in an enzyme-coupled reaction, as previously described (10, 13), or quantifying HA, either radiometrically or by dye staining following electrophoresis.

X1HAS1 [2] = experiment: as above; assay type: biochemical, Xenopus laevis; details: UDP release, normalized to WT
Procedure: as §1, §2

X1HAS1 [3] = experiment: Electrophoretic HA size determination (agarose gel, Stains-all) of in vitro synthesized HA; assay type: biochemical, Xenopus laevis; details: for HA product versus WT: short and long reactions (1 h or 8 h), not distinguished; for HA product versus WT, long reaction: 8 h synthesis reaction
Procedure: To assess the size of HA synthesized by X1HAS1, similar reaction conditions were applied to the ones described above. […] […] Controls were carried out by digesting the synthesized polymers with hyaluronidase. Synthesis reactions were mixed with SDS-PAGE loading dye and applied to a 1% agarose gel (Ultra-pure agarose, Invitrogen) casted in an Owl B2 system (ThermoFisher). […] After the run, the gel was equilibrated in 50% ethanol for 1.5 h and subjected to staining in 0.05% Stains-all (Sigma) in 50% ethanol overnight under light-protection. Post-staining background was reduced by soaking the gel in 20% ethanol for 3-7 days in the dark. The migration of the synthesized HA species was compared to HA standards from Streptococcus equi (Sigma), as well as enzymatically generated ladders: HA LoLadder and HA HiLadder (Hyalose).

| Molecule | Km (X1HAS1 [1]) | substrate turnover rate / catalytic rate relative to WT (X1HAS1 [2]) | HA product versus WT (X1HAS1 [3]) | HA product versus WT, short reaction (X1HAS1 [3]) | HA product versus WT, long reaction (X1HAS1 [3]) | HA size difference versus WT product (X1HAS1 [3]; from differences in electrophoretic mobility) |
| --- | --- | --- | --- | --- | --- | --- |
| O=C(O)[C@H]1O[C@H](OP(=O)(O)OP(=O)(O)OC[C@H]2O[C@@H](n3ccc(=O)[nH]c3=O)[C@H](O)[C@@H]2O)[C@H](O)[C@@H](O)[C@@H]1O [UDP-GlcA, reference compound] | ~370 µM | – | – | – | – | – |
| CC(=O)N[C@H]1[C@@H](OP(=O)(O)OP(=O)(O)OC[C@H]2O[C@@H](n3ccc(=O)[nH]c3=O)[C@H](O)[C@@H]2O)O[C@H](CO)[C@@H](O)[C@@H]1O [UDP-GlcNAc, reference compound] | ~470 µM | – | – | – | – | – |
| R287A: X1HAS1 mutant, Arg287 replaced with Ala (protein, UniProt P13563 1-588, looked up, variant R287A) Hyaluronan synthase 1: MKEKAAETMEIPEGIPKDLEPKHPTLWRIIYYSFGVVLLATITAAYVAEFQVLKHEAILFSLGLYGLAMLLHLMMQSLFAFLEIRRVNKSELPCSFKKTVALTIAGYQENPEYLIKCLESCKYVKYPKDKLKIILVIDGNTEDDAYMMEMFKDVFHGEDVGTYVWKGNYHTVKKPEETNKGSCPEVSKPLNEDEGINMVEELVRNKRCVCIMQQWGGKREVMYTAFQAIGTSVDYVQVCDSDTKLDELATVEMVKVLESNDMYGAVGGDVRILNPYDSFISFMSSLAYWMAFNVERACQSYFDCVSCISGPLGMYRNNILQVFLEAWYRQKFLGTYCTLGDDRHLTNRVLSMGYRTKYTHKSRAFSETPSLYLRWLNQQTRWTKSYFREWLYNAQWWHKHHIWMTYESVVSFIFPFFITATVIRLIYAGTIWNVVWLLLCIQIMSLFKSIYACWLRGNFIMLLMSLYSMLYMTGLLPSKYFALLTLNKTGWGTSGRKKIVGNYMPILPLSIWAAVLCGGVGYSIYMDCQNDWSTPEKQKEMYHLLYGCVGYVMYWVIMAVMYWVWVKRCCRKRSQTVTLVHDIPDMCV | – | about 15% | short HA oligosaccharide species | – | – | – |
| R296A: X1HAS1 mutant, Arg296 replaced with Ala (protein, UniProt P13563 1-588, looked up, variant R296A) Hyaluronan synthase 1: MKEKAAETMEIPEGIPKDLEPKHPTLWRIIYYSFGVVLLATITAAYVAEFQVLKHEAILFSLGLYGLAMLLHLMMQSLFAFLEIRRVNKSELPCSFKKTVALTIAGYQENPEYLIKCLESCKYVKYPKDKLKIILVIDGNTEDDAYMMEMFKDVFHGEDVGTYVWKGNYHTVKKPEETNKGSCPEVSKPLNEDEGINMVEELVRNKRCVCIMQQWGGKREVMYTAFQAIGTSVDYVQVCDSDTKLDELATVEMVKVLESNDMYGAVGGDVRILNPYDSFISFMSSLRYWMAFNVEAACQSYFDCVSCISGPLGMYRNNILQVFLEAWYRQKFLGTYCTLGDDRHLTNRVLSMGYRTKYTHKSRAFSETPSLYLRWLNQQTRWTKSYFREWLYNAQWWHKHHIWMTYESVVSFIFPFFITATVIRLIYAGTIWNVVWLLLCIQIMSLFKSIYACWLRGNFIMLLMSLYSMLYMTGLLPSKYFALLTLNKTGWGTSGRKKIVGNYMPILPLSIWAAVLCGGVGYSIYMDCQNDWSTPEKQKEMYHLLYGCVGYVMYWVIMAVMYWVWVKRCCRKRSQTVTLVHDIPDMCV | – | ~30% | short HA oligosaccharide species | – | – | – |
| H72A: X1HAS1 mutant, His72 replaced with Ala (protein, UniProt P13563 1-588, looked up, variant H72A) Hyaluronan synthase 1: MKEKAAETMEIPEGIPKDLEPKHPTLWRIIYYSFGVVLLATITAAYVAEFQVLKHEAILFSLGLYGLAMLLALMMQSLFAFLEIRRVNKSELPCSFKKTVALTIAGYQENPEYLIKCLESCKYVKYPKDKLKIILVIDGNTEDDAYMMEMFKDVFHGEDVGTYVWKGNYHTVKKPEETNKGSCPEVSKPLNEDEGINMVEELVRNKRCVCIMQQWGGKREVMYTAFQAIGTSVDYVQVCDSDTKLDELATVEMVKVLESNDMYGAVGGDVRILNPYDSFISFMSSLRYWMAFNVERACQSYFDCVSCISGPLGMYRNNILQVFLEAWYRQKFLGTYCTLGDDRHLTNRVLSMGYRTKYTHKSRAFSETPSLYLRWLNQQTRWTKSYFREWLYNAQWWHKHHIWMTYESVVSFIFPFFITATVIRLIYAGTIWNVVWLLLCIQIMSLFKSIYACWLRGNFIMLLMSLYSMLYMTGLLPSKYFALLTLNKTGWGTSGRKKIVGNYMPILPLSIWAAVLCGGVGYSIYMDCQNDWSTPEKQKEMYHLLYGCVGYVMYWVIMAVMYWVWVKRCCRKRSQTVTLVHDIPDMCV | – | 50-75% | – | reduced length | – | – |
| K448A: X1HAS1 mutant, Lys448 replaced with Ala (protein, UniProt P13563 1-588, looked up, variant K448A) Hyaluronan synthase 1: MKEKAAETMEIPEGIPKDLEPKHPTLWRIIYYSFGVVLLATITAAYVAEFQVLKHEAILFSLGLYGLAMLLHLMMQSLFAFLEIRRVNKSELPCSFKKTVALTIAGYQENPEYLIKCLESCKYVKYPKDKLKIILVIDGNTEDDAYMMEMFKDVFHGEDVGTYVWKGNYHTVKKPEETNKGSCPEVSKPLNEDEGINMVEELVRNKRCVCIMQQWGGKREVMYTAFQAIGTSVDYVQVCDSDTKLDELATVEMVKVLESNDMYGAVGGDVRILNPYDSFISFMSSLRYWMAFNVERACQSYFDCVSCISGPLGMYRNNILQVFLEAWYRQKFLGTYCTLGDDRHLTNRVLSMGYRTKYTHKSRAFSETPSLYLRWLNQQTRWTKSYFREWLYNAQWWHKHHIWMTYESVVSFIFPFFITATVIRLIYAGTIWNVVWLLLCIQIMSLFASIYACWLRGNFIMLLMSLYSMLYMTGLLPSKYFALLTLNKTGWGTSGRKKIVGNYMPILPLSIWAAVLCGGVGYSIYMDCQNDWSTPEKQKEMYHLLYGCVGYVMYWVIMAVMYWVWVKRCCRKRSQTVTLVHDIPDMCV | – | 50-75% | – | reduced length | – | – |
| K448R: X1HAS1 mutant, Lys448 replaced with Arg (protein, UniProt P13563 1-588, looked up, variant K448R) Hyaluronan synthase 1: MKEKAAETMEIPEGIPKDLEPKHPTLWRIIYYSFGVVLLATITAAYVAEFQVLKHEAILFSLGLYGLAMLLHLMMQSLFAFLEIRRVNKSELPCSFKKTVALTIAGYQENPEYLIKCLESCKYVKYPKDKLKIILVIDGNTEDDAYMMEMFKDVFHGEDVGTYVWKGNYHTVKKPEETNKGSCPEVSKPLNEDEGINMVEELVRNKRCVCIMQQWGGKREVMYTAFQAIGTSVDYVQVCDSDTKLDELATVEMVKVLESNDMYGAVGGDVRILNPYDSFISFMSSLRYWMAFNVERACQSYFDCVSCISGPLGMYRNNILQVFLEAWYRQKFLGTYCTLGDDRHLTNRVLSMGYRTKYTHKSRAFSETPSLYLRWLNQQTRWTKSYFREWLYNAQWWHKHHIWMTYESVVSFIFPFFITATVIRLIYAGTIWNVVWLLLCIQIMSLFRSIYACWLRGNFIMLLMSLYSMLYMTGLLPSKYFALLTLNKTGWGTSGRKKIVGNYMPILPLSIWAAVLCGGVGYSIYMDCQNDWSTPEKQKEMYHLLYGCVGYVMYWVIMAVMYWVWVKRCCRKRSQTVTLVHDIPDMCV | – | 50-75% | – | reduced length | equivalent to or exceeding the HA length obtained from the WT enzyme | up to 0.5 MDa |
| H72F: X1HAS1 mutant, His72 replaced with Phe (protein, UniProt P13563 1-588, looked up, variant H72F) Hyaluronan synthase 1: MKEKAAETMEIPEGIPKDLEPKHPTLWRIIYYSFGVVLLATITAAYVAEFQVLKHEAILFSLGLYGLAMLLFLMMQSLFAFLEIRRVNKSELPCSFKKTVALTIAGYQENPEYLIKCLESCKYVKYPKDKLKIILVIDGNTEDDAYMMEMFKDVFHGEDVGTYVWKGNYHTVKKPEETNKGSCPEVSKPLNEDEGINMVEELVRNKRCVCIMQQWGGKREVMYTAFQAIGTSVDYVQVCDSDTKLDELATVEMVKVLESNDMYGAVGGDVRILNPYDSFISFMSSLRYWMAFNVERACQSYFDCVSCISGPLGMYRNNILQVFLEAWYRQKFLGTYCTLGDDRHLTNRVLSMGYRTKYTHKSRAFSETPSLYLRWLNQQTRWTKSYFREWLYNAQWWHKHHIWMTYESVVSFIFPFFITATVIRLIYAGTIWNVVWLLLCIQIMSLFKSIYACWLRGNFIMLLMSLYSMLYMTGLLPSKYFALLTLNKTGWGTSGRKKIVGNYMPILPLSIWAAVLCGGVGYSIYMDCQNDWSTPEKQKEMYHLLYGCVGYVMYWVIMAVMYWVWVKRCCRKRSQTVTLVHDIPDMCV | – | about 10% | – | reduced length | equivalent to or exceeding the HA length obtained from the WT enzyme | – |
